According to paper PMC4267655, “Brr2p carboxy-terminal Sec63 domain modulates Prp16 splicing RNA helicase” (Nucleic Acids Research, 2014):

B1: Prp16p (wild type), LexA-bait fusion [budding yeast] / Brr2 H2-Sec63-2p (wild type), Gal4AD-prey fusion [budding yeast] (parent complex)
chain 1: MGHSGREERIKDIFKELTSKELTPGLLLTLQKLAQKPNTNLEQFIASCKALTKLSSNNPIIFNELLELLKNKSEEDSTGPKKIAPSINKRKKFKIQLDLDDNEDELDSPVQKKPAPTRTLFKRIDKLKAKQLRQYSPTVKDPSPNSEQQTQNGHAETKDYEPTRSEVVEEDREWYDNDDDYGNLVPEPLSELPEEAKLLPVIRNIDNDDALRNTVQLYPIPLKQRMEWIPPFLSKFALENKVPTSIIIGSISETSSQVSALSMVNPFRNPDSEFSANAKRGSKLVALRRINMEHIQQSRDNTTVLNTAMGEVLGLENNNKAKDKSNQKICDDTALFTPSKDDIKHTKEQLPVFRCRSQLLSLIRENQVVVIIGETGSGKTTQLAQYLYEEGYANDRGKSIVVTQPRRVAAISVAKRVAMEMQVPLGKEVGYSIRFEDVTDSECTKLKFVTDGILLRETLLDDTLDKYSCVIIDEAHERSLNTDILLGFFKILLARRRDLKLIITSATMNAKKFSAFFGNAPQFTIPGRTFPVQTIYTSNPVQDYVEAAVSQAVKIHLANDCSSGDILIFMTGQEDIETTFDTLQEKFLQVYSKKFGTANFEEINDIEILPIYSALPADLQFKIFQDLHGTKRKIIIATNIAETSLTIKGIRYVIDCGYSKLKVYNPKIGLDSLVITPISKANADQRSGRAGRTAPGTAYRLYTEDTFKEDMYLQTIPEIQRTNLSNTLLLLKSLDVTDELSKFPFIDKPPLQTFLSSLYELWFIGAIDTSGQLTPLGLQMAKFPLQPSLSKILLIAVRNGCSDEMLTIVSMLSVPQVFYRPKERQKEADIARNKFFIAKSDHLTLLNVFEQWRANNFSSHWCNKHFVQYKSLVRARDIRDQLLTILKSQKIPVISSGKDWDIIKKCICSGFAHQAAKITGLRNYVHLKTGVSVQLHPTSALHGLGDLPPYVVYHELLMTSKEYICCVTSVDPFWLMEYGGLLYDIKRIKNDQEATTTGLFGEHYEHTLDKVEDDIDINIRRCKDMRDSVIQELKMTDNSNKEDKKQKTKKQNILNGKENSMKPFKRRKPFF
chain 2: MTEHETKDKAKKIREIYRYDEMSNKVLKVDKRFMNTSQNPQRDAEISQPKSMSGRISAKDMGQGLCNNINKGLKENDVAVEKTGKSASLKKIQQHNTILNSSSDFRLHYYPKDPSNVETYEQILQWVTEVLGNDIPHDLIIGTADIFIRQLKENEENEDGNIEERKEKIQHELGINIDSLKFNELVKLMKNITDYETHPDNSNKQAVAILADDEKSDEEEVTEMSNNANVLGGEINDNEDDDEEYDYNDVEVNSKKKNKRALPNIENDIIKLSDSKTSNIESVPIYSIDEFFLQRKLRSELGYKDTSVIQDLSEKILNDIETLEHNPVALEQKLVDLLKFENISLAEFILKNRSTIFWGIRLAKSTENEIPNLIEKMVAKGLNDLVEQYKFRETTHSKRELDSGDDQPQSSEAKRTKFSNPAIPPVIDLEKIKFDESSKLMTVTKVSLPEGSFKRVKPQYDEIHIPAPSKPVIDYELKEITSLPDWCQEAFPSSETTSLNPIQSKVFHAAFEGDSNMLICAPTGSGKTNIALLTVLKALSHHYNPKTKKLNLSAFKIVYIAPLKALVQEQVREFQRRLAFLGIKVAELTGDSRLSRKQIDETQVLVSTPEKWDITTRNSNNLAIVELVRLLIIDEIHLLHDDRGPVLESIVARTFWASKYGQEYPRIIGLSATLPNYEDVGRFLRVPKEGLFYFDSSFRPCPLSQQFCGIKERNSLKKLKAMNDACYEKVLESINEGNQIIVFVHSRKETSRTATWLKNKFAEENITHKLTKNDAGSKQILKTEAANVLDPSLRKLIESGIGTHHAGLTRSDRSLSEDLFADGLLQVLVCTATLAWGVNLPAHTVIIKGTDVYSPEKGSWEQLSPQDVLQMLGRAGRPRYDTFGEGIIITDQSNVQYYLSVLNQQLPIESQFVSKLVDNLNAEVVAGNIKCRNDAVNWLAYTYLYVRMLASPMLYKVPDISSDGQLKKFRESLVHSALCILKEQELVLYDAENDVIEATDLGNIASSFYINHASMDVYNRELDEHTTQIDLFRIFSMSEEFKYVSVRYEEKRELKQLLEKAPIPIREDIDDPLAKVNVLLQSYFSQLKFEGFALNSDIVFIHQNAGRLLRAMFEICLKRGWGHPTRMLLNLCKSATTKMWPTNCPLRQFKTCPVEVIKRLEASTVPWGDYLQLETPAEVGRAIRSEKYGKQVYDLLKRFPKMSVTCNAQPITRSVMRFNIEIIADWIWDMNVHGSLEPFLLMLEDTDGDSILYYDVLFITPDIVGHEFTLSFTYELKQHNQNNLPPNFFLTLISENWWHSEFEIPVSFNGFKLPKKFPPPTPLLENISISTSELGNDDFSEVFEFKTFNKIQSQVFESLYNSNDSVFVGSGKGTGKTAMAELALLNHWRQNKGRAVYINPSGEKIDFLLSDWNKRFSHLAGGKIINKLGNDPSLNLKLLAKSHVLLATPVQFELLSRRWRQRKNIQSLELMIYDDAHEISQGVYGAVYETLISRMIFIATQLEKKIRFVCLSNCLANARDFGEWAGMTKSNIYNFSPSERIEPLEINIQSFKDVEHISFNFSMLQMAFEASAAAAGNRNSSSVFLPSRKDCMEVASAFMKFSKAIEWDMLNVEEEQIVPYIEKLTDGHLRAPLKHGVGILYKGMASNDERIVKRLYEYGAVSVLLISKDCSAFACKTDEVIILGTNLYDGAEHKYMPYTINELLEMVGLASGNDSMAGKVLILTSHNMKAYYKKFLIEPLPTESYLQYIIHDTLNNEIANSIIQSKQDCVDWFTYSYFYRRIHVNPSYYGVRDTSPHGISVFLSNLVETCLNDLVESSFIEIDDTEAEVTAEVNGGDDEATEIISTLSNGLIASHYGVSFFTIQSFVSSLSNTSTLKNMLYVLSTAVEFESVPLRKGDRALLVKLSKRLPLRFPEHTSSGSVSFKVFLLLQAYFSRLELPVDFQNDLKDILEKVVPLINVVVDILSANGYLNATTAMDLAQMLIQGVWDVDNPLRQIPHFNNKILEKCKEINVETVYDIMALEDEERDEILTLTDSQLAQVAAFVNNYPNVELTYSLNNSDSLISGVKQKITIQLTRDVEPENLQVTSEKYPFDKLESWWLVLGEVSKKELYAIKKVTLNKETQQYELEFDTPTSGKHNLTIWCVCDSYLDADKELSFEINVK

Variants of: B1
Assay: Y2H interaction assay; growth on -LWH medium with 3-AT; parent: 50 nM

Variant | screen value [mM]
chain 1 R456K, chain 1 G691R | 0
chain 1 L335F | 50
chain 1 R686Q | 50
chain 1 D473E | 50
chain 1 Q685H | 50
chain 1 H476D | 50
chain 1 R686I | 0
chain 1 K379R | 50
chain 1 T507A | 50

Variants of: B1
Assay: as above
Remark: another data set of the same source

Variant | screen value [mM]
chain 2 L1951P | 0
chain 2 R1899G | 150
